According to patent US7803749B2, “Peptide inhibitors of MKK7 kinase binding to insulin binding proteins” (Xigen SA, priority 2002, dated 2010):
“Also recorded” adds a separate entry of the source. Residues, ends and D or L forms follow the SMILES beside them.

Experiments:
[1] = biological target: T1, MKK7 binding to IB1 (SH3 domain) (Homo sapiens, UniProt Q9UQF2); test: Pull-down of 35S-labelled MKK7 with GST-SH3 domain of IB1; settings: FIG. 2
T1 construct: the SH3 domains of IB1 and IB2 were subcloned using PCR into the pGEX-4T1 vector in frame with the GST; made in house; host or cells: E. coli
T1 sequence (Q9UQF2 488-549 limits assumed): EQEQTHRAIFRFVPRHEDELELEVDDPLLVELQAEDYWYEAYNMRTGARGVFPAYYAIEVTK
Method: (§1) Effects of the αSH3 peptide on JNK biological activities were then studied. […] In the pull-down experiments, the SH3 domains of IB1 and IB2 were subcloned using PCR into the pGEX-4T1 vector in frame with the GST (Pharmacia). The recombinant proteins were produced in E. Coli. Purification was performed in native conditions using a glutathione-agarose column (Pharmacia). ^35S-labelled MKK7 was then used in classical pull-down experiments.

[2] = biological target: T2, MKK7 binding to IB2 (SH3 domain) (Homo sapiens, UniProt Q13387); test: Pull-down of 35S-labelled MKK7 with GST-SH3 domain of IB2; settings: FIG. 2
T2 construct: the SH3 domains of IB1 and IB2 were subcloned using PCR into the pGEX-4T1 vector in frame with the GST; made in house; host or cells: E. coli
T2 sequence (Q13387 604-665 limits assumed): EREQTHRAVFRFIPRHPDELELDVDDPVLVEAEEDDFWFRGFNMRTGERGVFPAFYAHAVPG
Method: as §1

[3] = test system: developing rat cortical neurons; test: Incubation of developing rat cortical neurons with peptide (necrotic bodies, neuron number); settings: 1 μM, vs control neurons, FIGS. 4A-4F

## αSH3: consensus αSH3 sequence SVSVGMPPSPRP, 12 aa
[1]
  Blocking of the binding of MKK7 to IB1: efficiently blocks
[2]
  Blocking of the binding of MKK7 to IB2: efficiently blocks

## CSCC[C@H](NC(=O)CNC(=O)[C@@H](NC(=O)[C@H](CO)NC(=O)[C@@H](NC(=O)[C@H](CO)NC(=O)[C@H](CCCNC(=N)N)NC(=O)[C@H](CCCNC(=N)N)NC(=O)[C@H](CCCNC(=N)N)NC(=O)[C@H](CCC(N)=O)NC(=O)[C@H](CCCNC(=N)N)NC(=O)[C@H](CCCNC(=N)N)NC(=O)[C@H](CCCCN)NC(=O)[C@H](CCCCN)NC(=O)[C@@H](N)CCCNC(=N)N)C(C)C)C(C)C)C(=O)N1CCC[C@H]1C(=O)N1CCC[C@H]1C(=O)N[C@@H](CO)C(=O)N1CCC[C@H]1C(=O)N[C@@H](CCCNC(=N)N)C(=O)N1CCC[C@H]1C(=O)O [TAT-αSH3] (H-RKKRRQRRRSVSVGMPPSPRP-OH)
[3]
  Toxicity on developing neurons (appearance of residual necrotic bodies): lacked residual necrotic bodies; also recorded: not toxic
